In patent US20050074854A1 (TRIPEP, published 2005):

Target: gp120 of HIV-1 IIIB (on virus) (HIV-1 IIIB)
Experiment: cell-based or functional assay

Row | Binder | neutralization of HIV-1 IIIB (reduction of syncytia/PFU, U87/CD4 cells); CD4 peptide alone, 0.1 ug/ml | neutralization of HIV-1 IIIB (reduction of syncytia/PFU, U87/CD4 cells); CD4 peptide alone, 1 ug/ml | neutralization of HIV-1 IIIB (reduction of syncytia/PFU, U87/CD4 cells); CD4 peptide alone, 10 ug/ml
1 | QFHWKNSNQIKILGN [CD4 peptide Seq. Id. No. 4 without the coupled sugar] | < 0.3 fraction neutralized (0.3 = 30%) | < 0.3 fraction neutralized (0.3 = 30%) | < 0.3 fraction neutralized (0.3 = 30%)
2 | KILGNQGSFLTKGPS [CD4 peptide Seq. Id. No. 6 without the coupled sugar] | < 0.3 fraction neutralized (0.3 = 30%) | < 0.3 fraction neutralized (0.3 = 30%) | < 0.3 fraction neutralized (0.3 = 30%)
3 | QGSFLTKGPSKLNDR [CD4 peptide Seq. Id. No. 7 without the coupled sugar] | < 0.3 fraction neutralized (0.3 = 30%) | < 0.3 fraction neutralized (0.3 = 30%) | < 0.3 fraction neutralized (0.3 = 30%)
4 | NSNQIKILGNQGSFL [CD4 peptide Seq. Id. No. 5 without the coupled sugar] | < 0.3 fraction neutralized (0.3 = 30%) | < 0.3 fraction neutralized (0.3 = 30%) | < 0.3 fraction neutralized (0.3 = 30%)
